In US8895526B2, “Identification of RNAI targets and use of RNAI for rational therapy of chemotherapy-resistant leukemia and other cancers” (Cold Spring Harbor Laboratory, priority 2009, dated 2014):

B1: Hpgd.1070: shRNA, SEQ ID NO: 132 (nucleic acid)
chain: TGCTGTTGACAGTGAGCGCAAACTAGGTTATAACCTATAATAGTGAAGCCACAGATGTATTATAGGTTATAACCTAGTTTTTGCCTACTGCCTCGGA
B2: Vnn3.345: shRNA, SEQ ID NO: 189 (nucleic acid)
chain: TGCTGTTGACAGTGAGCGAACGCCAGAAGATGGAATCTATTAGTGAAGCCACAGATGTAATAGATTCCATCTTCTGGCGTCTGCCTACTGCCTCGGA
B3: Cacna1f.3314: shRNA, SEQ ID NO: 99 (nucleic acid)
chain: TGCTGTTGACAGTGAGCGACTGGCCTGCGCTACTATACAATAGTGAAGCCACAGATGTATTGTATAGTAGCGCAGGCCAGCTGCCTACTGCCTCGGA
B4: Gdi1.2355: shRNA, SEQ ID NO: 130 (nucleic acid)
chain: TGCTGTTGACAGTGAGCGACTCTAGTATATTTCACAGAAATAGTGAAGCCACAGATGTATTTCTGTGAAATATACTAGAGCTGCCTACTGCCTCGGA
B5: Slc15a3.1086: shRNA, SEQ ID NO: 180 (nucleic acid)
chain: TGCTGTTGACAGTGAGCGCCTGGTTCTATTGGAGCATCAATAGTGAAGCCACAGATGTATTGATGCTCCAATAGAACCAGTTGCCTACTGCCTCGGA
B6: Syt17.721: shRNA, SEQ ID NO: 184 (nucleic acid)
chain: TGCTGTTGACAGTGAGCGCCGAGGAGATCATGTCCAAGTATAGTGAAGCCACAGATGTATACTTGGACATGATCTCCTCGTTGCCTACTGCCTCGGA
B7: Gab3.527: shRNA, SEQ ID NO: 125 (nucleic acid)
chain: TGCTGTTGACAGTGAGCGCGACGGAAACACTAATAGTGTATAGTGAAGCCACAGATGTATACACTATTAGTGTTTCCGTCATGCCTACTGCCTCGGA
B8: Centa1.1387: shRNA, SEQ ID NO: 105 (nucleic acid)
chain: TGCTGTTGACAGTGAGCGCCAGAACCTCATTAAAGTTGAATAGTGAAGCCACAGATGTATTCAACTTTAATGAGGTTCTGATGCCTACTGCCTCGGA
B9: Ncf1.2370: shRNA, SEQ ID NO: 150 (nucleic acid)
chain: TGCTGTTGACAGTGAGCGCCAGAAGATCAATGCACATAAATAGTGAAGCCACAGATGTATTTATGTGCATTGATCTTCTGTTGCCTACTGCCTCGGA
B10: Atp6v0d1.481: shRNA, SEQ ID NO: 93 (nucleic acid)
chain: TGCTGTTGACAGTGAGCGACACCAGCGTTCAATAGCTGAATAGTGAAGCCACAGATGTATTCAGCTATTGAACGCTGGTGCTGCCTACTGCCTCGGA
B11: EG277089.605: shRNA, SEQ ID NO: 115 (nucleic acid)
chain: TGCTGTTGACAGTGAGCGCCTCAATCTCATTGGTGGCTTATAGTGAAGCCACAGATGTATAAGCCACCAATGAGATTGAGATGCCTACTGCCTCGGA
B12: F10.1044: shRNA, SEQ ID NO: 117 (nucleic acid)
chain: TGCTGTTGACAGTGAGCGACACCATCTTGAATGAGTTCTATAGTGAAGCCACAGATGTATAGAACTCATTCAAGATGGTGCTGCCTACTGCCTCGGA
B13: Slc6a13.1196: shRNA, SEQ ID NO: 182 (nucleic acid)
chain: TGCTGTTGACAGTGAGCGACTGGGACTAGATAGCCAGTTTTAGTGAAGCCACAGATGTAAAACTGGCTATCTAGTCCCAGGTGCCTACTGCCTCGGA
B14: Gdi1.1120: shRNA, SEQ ID NO: 129 (nucleic acid)
chain: TGCTGTTGACAGTGAGCGCCAACAGGAAGTCAGACATCTATAGTGAAGCCACAGATGTATAGATGTCTGACTTCCTGTTGATGCCTACTGCCTCGGA
B15: Plcb2.3742: shRNA, SEQ ID NO: 167 (nucleic acid)
chain: TGCTGTTGACAGTGAGCGCAGGGACCTTAATACTCAGATATAGTGAAGCCACAGATGTATATCTGAGTATTAAGGTCCCTTTGCCTACTGCCTCGGA
B16: Kcnh7.2642: shRNA, SEQ ID NO: 134 (nucleic acid)
chain: TGCTGTTGACAGTGAGCGCATGGTTCATCTTTATGCCAAATAGTGAAGCCACAGATGTATTTGGCATAAAGATGAACCATTTGCCTACTGCCTCGGA
B17: Park2.2222: shRNA, SEQ ID NO: 158 (nucleic acid)
chain: TGCTGTTGACAGTGAGCGCAACAGAGAAAGTGCCTATAAATAGTGAAGCCACAGATGTATTTATAGGCACTTTCTCTGTTATGCCTACTGCCTCGGA
B18: Slc12a5.3582: shRNA, SEQ ID NO: 179 (nucleic acid)
chain: TGCTGTTGACAGTGAGCGAAACGAGGTCATCGTGAATAAATAGTGAAGCCACAGATGTATTTATTCACGATGACCTCGTTCTGCCTACTGCCTCGGA
B19: Acsl1.3559: shRNA, SEQ ID NO: 88 (nucleic acid)
chain: TGCTGTTGACAGTGAGCGCCAGCATTTCACTTTACTGCAATAGTGAAGCCACAGATGTATTGCAGTAAAGTGAAATGCTGTTGCCTACTGCCTCGGA
B20: Flot2.1039: shRNA, SEQ ID NO: 120 (nucleic acid)
chain: TGCTGTTGACAGTGAGCGACAAGGTGACATCAGAAGTAAATAGTGAAGCCACAGATGTATTTACTTCTGATGTCACCTTGCTGCCTACTGCCTCGGA
B21: Plod3.2501: shRNA, SEQ ID NO: 168 (nucleic acid)
chain: TGCTGTTGACAGTGAGCGAACCGTTGATATCCACATGAAATAGTGAAGCCACAGATGTATTTCATGTGGATATCAACGGTGTGCCTACTGCCTCGGA
B22: Plod3.3138: shRNA, SEQ ID NO: 169 (nucleic acid)
chain: TGCTGTTGACAGTGAGCGACTCAGCCTCACTTTCAATAAATAGTGAAGCCACAGATGTATTTATTGAAAGTGAGGCTGAGGTGCCTACTGCCTCGGA

Key:
[1] = test system: immortalized murine embryonic fibroblasts (Mef); experiment: Pooled negative selection RNAi screening (deep sequencing); type: cell-based; conditions: deep sequencing reads, on dox compared to initial representation
Text: (§1) In addition to the analysis of single shRNAs for inhibitory effects in vitro and in vivo, the combination of tet-on competent cancer models and tet-regulatable shRNA expression vectors allowing for monitoring shRNA expression through fluorescent and other reporter genes (e.g. TRMPV and derivates) facilitates pooled shRNA negative selection screening (FIG. 37). In such approaches a pool of over 1,000 shRNAs are retrovirally transduced into tet-on competent cancer models (here MLL/AF9+Nras AML) and selected for shRNA containing cells by either drug selection (e.g. G418) or fluorescence-activated cell sorting (FACS). Selected cell populations harboring a library of shRNAs then can be cultured in the absence or presence of doxycyline (off dox and on dox, respectively) or injected into syngeneic recipient mice that are either treated with doxycyline or left untreated.
(§2) The representation of each shRNA within the pool can be effectively assessed by deep sequencing of shRNA cassettes in a given cell population. For this, genomic DNA is extracted from leukemia cells containing the shRNA pool, and the shRNA guide or passenger strand (21-22 target gene specific nucleotides of the shRNA) by PCR using primers specific for common sequences flanking the gene specific part of the shRNA (e.g. miR30 19 nt loop and miR30 common 3′ sequence). The primers also contain 5′-adapters required for deep sequencing (e.g. for Illumina/Solexa sequencing primers are p5+mir3: 5′-[…]-3′ (SEQ ID NO: 215) and p7+Loop: 5′-[…]-3′ (SEQ ID NO: 216)). Deep sequencing is subsequently performed using a primer binding the flanking nucleotide sequence next to the target gene specific part of the shRNA (for Illumina/Solexa platforms the primer is mir30EcoR1Seq: 5′-TAGCCCCTTGAATTCCGA GGCAGTAGGCA-3′ (SEQ ID NO: 217)).
(§3) The use of shRNA vectors that allow for monitoring of shRNA expression through fluorescent and other reporter genes (e.g. TRMPV) in combination with tet-on competent mouse models facilitates the isolation of pure shRNA expressing cell populations (e.g. by FACS, for TRMPV by sorting of Venus/dsRed double positive cells (FIG. 38). This selection of shRNA expressing cells prior to DNA isolation strongly reduces the background caused by cell populations with insufficient shRNA induction, which are predicted to contain genomic representation of the whole shRNA library without shRNA specific shifts in representation. The final readout is based on the comparison of shRNA representation (i.e. deep sequencing read numbers) before the assay (t0) or from cell populations left without doxycycline treatment (off dox) to those where shRNA were induced and cells subsequently sorted for shRNA expressing cells (on dox). shRNA with inhibitory effects are predicted to loose representation (show less reads) on dox compared to t0 and off dox.
(§4) This pooled is RNAi screening strategy can be applied to rapidly survey inhibitory effects of large pools of shRNAs (˜1000 at a time) in different tet-on competent cancer models and normal control cells (FIG. 39). For example, a pool of 1166 shRNAs targeting 836 predominantly druggable genes associated with MLL fusion proteins in human leukemia and mouse models of MLL/AF9-induced AML (MLL cure library) was analyzed in pooled negative selection screening in tet-on competent MLL/AF9+Nras AML and immortalized murine embryonic fibroblasts (Mef) in parallel. To establish and validate this screening approach, the pool also contained 64 control shRNAs each of which have been previously analyzed for inhibitory effects in both AML cells and Mefs using the same experimental system (FIG. 40).
(§5) After pooling of 1166 experimental and 64 control shRNAs the presence of shRNAs was verified by deep sequencing of shRNAs within the plasmid vector pool (FIG. 41). […]

[2] = test system: tet-on competent MLL/AF9+Nras AML; experiment: as above; type: cell-based, mouse; conditions: deep sequencing reads, On Dox compared to T0
Text: as §1, §2, §3, §4, §5

| Molecule | Fold depletion in Mef [1] [Fold] | Fold depletion in AML [2] [Fold] |
| --- | --- | --- |
| B1 | 1.10 | 10.43 |
| B2 | 2.59 | 10.19 |
| B3 | 2.14 | 12.52 |
| B4 | 2.86 | 9.92 |
| B5 | 2.32 | 10.29 |
| B6 | 0.86 | 10.25 |
| B7 | 0.46 | 10.22 |
| B8 | 0.77 | 11.44 |
| B9 | 2.33 | 10.06 |
| B10 | 1.90 | 12.03 |
| B11 | 2.02 | 25.37 |
| B12 | 1.25 | 10.52 |
| B13 | 1.52 | 9.77 |
| B14 | 1.98 | 24.81 |
| B15 | 2.25 | 10.81 |
| B16 | 0.92 | 10.58 |
| B17 | 1.32 | 11.36 |
| B18 | 2.21 | 12.58 |
| B19 | 1.45 | 10.18 |
| B20 | 2.72 | 10.89 |
| B21 | 2.62 | 12.30 |
| B22 | 0.71 | 21.28 |
